This note sets out measurements from PMC3146519, “Highly Efficient Production of Soluble Proteins from Insoluble Inclusion Bodies by a Two-Step-Denaturing and Refolding Method”.

The target of the data set is T1, NRSF/REST DBD (refolded by 2DR) (UniProt Q13127 159-412).
T1 sequence: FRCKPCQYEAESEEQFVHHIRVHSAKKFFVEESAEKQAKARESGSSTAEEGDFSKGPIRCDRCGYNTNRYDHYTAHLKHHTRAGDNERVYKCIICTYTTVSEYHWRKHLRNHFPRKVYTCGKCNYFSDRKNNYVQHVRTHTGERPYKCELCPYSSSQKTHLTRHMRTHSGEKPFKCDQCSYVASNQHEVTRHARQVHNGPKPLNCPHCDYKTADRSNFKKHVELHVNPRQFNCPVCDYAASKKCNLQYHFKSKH
Description: EMSA; 0.1 mM ZnCl2; DBD:DNA 0:1 to 3:1, 75 pmol DNA in 20 ul; 10 mM Tris pH 7.0, 0.1 mM ZnCl2, 20 ul, 30 min at room temperature; 5% native PAGE, EtBr stain. The following applies: protein: recombinant; label: none (EtBr stain); blunt.

B1: NRSE/RE1 dsDNA (dsDNA)
DNA 1: TTCAGCACCACGGACAGCGCC
DNA 2: GGCGCTGTCCGTGGTGCTGAA
For the molecule B1, the binding result is “binds”.
